Switch fluorescence ratio data for 66 sequences are collected here from the supplement of paper PMC10126150.

± gives the standard deviation of the averaged measurements.

For the data set, the system named is ATP. Briefly: switch fluorescence ratio, 500 uM ATP over buffer (Cy3 cluster intensity, sum of 5 cycles each) (fold (ratio)); higher = stronger signal-on switching upon ATP binding; sequences stand for … in TCGTCGGCAGCGTCAGATGTGTATAAGAGACAGTTTTTTTTTTTTTTTTTTTTTTTTT…TC. The note with it: aptamer strand: ATP DNA aptamer (quencher-CACCTGGGGGAGTATTGCGGAGGAAGG + anchor), 100 nM annealed; ATP concentration: 500 uM. The procedure, abridged: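 Per cluster, summed Cy3 intensity from the target cycles was divided by that from the buffer cycles to give the fluorescence ratio, then averaged per switch-domain sequence. Clusters outside 100-1000 RFU were excluded. The Cy3-labelled switching-strand clusters, on a modified Illumina MiSeq flow-cell, were annealed to 100 nM quencher-labelled ATP aptamer and imaged in selection buffer, then after 15 min with 500 uM ATP at 22 °C, for five cycles with NaOH stripping and re-annealing between them.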
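Also: ATP exposure 15 min at 22 °C before imaging.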

Turning to TCGGGGGAGC, the switch fluorescence ratio came to 0.984 ± 0.025.
The result for TAAGGAAAGA reads 1.08 ± 0.12.
On to GAGCTAGGAA, for which the switch fluorescence ratio came out at 0.981 ± 0.058.
The result for CGTTCCGGGG reads 1.03 ± 0.036; that for TAACTCGAAC, 1.04 ± 0.023.
Then GGTGGGGCAG, with 0.9643 ± 0.0041.
On to GAAAGTAGAG, for which the switch fluorescence ratio came to 1.01 ± 0.0018.
Consider TAGGGACTGG, for which the switch fluorescence ratio came out at 0.996 ± 0.016.
Then CTTAGCATTG, with 1.03 ± 0.023; and GCTGTTCATG, with 0.993 ± 0.015; and ACTCTTGCTT, with 1.072 ± 0.0046.
Then TGCTTATGGT, with 0.965 ± 0.029; and TCAACGGGAA, with 1.01 ± 0.014; and TGTGTTAGGG, with 0.979 ± 0.049.
The result for CCACAGGGCA reads 1.34 ± 0.059; that for ATGAAGCGGT, 1.04 ± 0.083.
As for CCGGGGGGAG, the switch fluorescence ratio was 1.02 ± 0.045.
For TATAAGACTT, the switch fluorescence ratio was 1.01 ± 0.035.
In the case of CGTGAAAATC, the switch fluorescence ratio stood at 0.9987 ± 0.0075.
Then AGGGTGGAAT, with 1.068 ± 0.01; and CGGTATCTGA, with 0.9888 ± 0.006; and GCAATTTTTT, with 1.03 ± 0.032.
On to GCTTGGCTCG, for which the switch fluorescence ratio was determined as 1.01 ± 0.027.
Then GGTGGGAGCA, with 1.04 ± 0.034; and TGGGGCTGTG, with 0.991 ± 0.014.
Consider TTAGATAGGT, for which the switch fluorescence ratio was determined as 1.02 ± 0.062.
Then CATGGGTGTG, with 0.993 ± 0.042; and ATTTGGTGCA, with 1.01 ± 0.056.
With CTACGAGGTA, the switch fluorescence ratio was determined as 1.045 ± 0.0027.
The result for TGAAGGACCG reads 0.952 ± 0.026.
The result for TTGAAGAAAA reads 1.97 ± 1.3.
The result for GTAGAAGGGA reads 1.01 ± 0.025; that for GGGGGCATTG, 0.9933 ± 0.0084; that for CGGATGTTAC, 1.171 ± 0.0093.
For the sequence TTTAATAGCT, the switch fluorescence ratio came to 1 ± 0.04.
Consider TCGGCATTTT, for which the switch fluorescence ratio was 1.027 ± 0.0014.
Then TTTAAGCAGA, with 1.04 ± 0.041; and AAAATTAGGT, with 0.9779 ± 0.0093; and GGGTACTTTT, with 1 ± 0.0091.
As to AAAAAGGGGG, the switch fluorescence ratio is 1.02 ± 0.045.
The result for AGCTAGGGGG reads 0.989 ± 0.022; that for GCGGGTCGGA, 1.02 ± 0.039.
For the sequence ATTGGGAAGA, the switch fluorescence ratio is 1.02 ± 0.028.
As to CATGAAAGAC, the switch fluorescence ratio was determined as 1.05 ± 0.041.
On to TAAAGTAAGT, for which the switch fluorescence ratio worked out at 1.008 ± 0.01.
Regarding TTGATGGGGA, the switch fluorescence ratio turned out to be 0.982 ± 0.014.
For the sequence ATTAATGCGG, the switch fluorescence ratio turned out to be 1.07 ± 0.032.
Take GTTTATTCCT: the switch fluorescence ratio was 1.02 ± 0.044.
Regarding TAGGGGGGTG, the switch fluorescence ratio turned out to be 1.02 ± 0.025.
As for GATTGTTCTC, the switch fluorescence ratio is 0.981 ± 0.011.
Take ATGTTAATCT: the switch fluorescence ratio turned out to be 1.02 ± 0.035.
Consider TGACTGCTGG, for which the switch fluorescence ratio turned out to be 1.01 ± 0.027.
TGGAATTAGT: the switch fluorescence ratio was determined as 0.986 ± 0.038.
The result for CGACGAGTAA reads 1.32 ± 0.36; that for TGTTAAAGGA, 0.991 ± 0.022.
The result for TTTCTCAGTA reads 1.03 ± 0.041; that for AGGCAGGCGG, 1.01 ± 0.073.
The result for TTCAAAGGGG reads 1.09 ± 0.24.
Regarding TGGGAACTCT, the switch fluorescence ratio was determined as 0.994 ± 0.012.
The result for GGATGGGCAA reads 1.026 ± 0.0026.
Then CGTAAAAGAT, with 1.04 ± 0.06; and TTAAAAGTGT, with 0.999 ± 0.026.
Then AAGTGGAGTC, with 1.05 ± 0.085; and TTTCGACCGA, with 1.03 ± 0.033; and ATATTTAGAG, with 0.992 ± 0.027.
Take ACCATCCGGC: the switch fluorescence ratio stood at 1.12 ± 0.012.
